Laboratory results as given in US7273747B2, “Cell having amplified signal transduction pathway responses and uses therefor” (Cadus Technologies, Inc., priority 1998, dated 2007).
Square brackets hold non-standard residues; d marks the D form. Ends that are not written are not given here. NMeF = CN[C@@H](Cc1ccccc1)C(=O)O; Cha = N[C@@H](CC1CCCCC1)C(=O)O; dCha = N[C@H](CC1CCCCC1)C(=O)O

Molecular target: T1, C5a receptor (Homo sapiens, UniProt P21730)
T1 construct: expressed in transfected cells; host or cells: Saccharomyces cerevisiae strain CY10103 (sibling strains CY13970/13971 and CY13974/13975), carrying gpa1(41)-Gαi2, with a FUS1p-lacZ reporter plasmid
T1 sequence (P21730 1-350): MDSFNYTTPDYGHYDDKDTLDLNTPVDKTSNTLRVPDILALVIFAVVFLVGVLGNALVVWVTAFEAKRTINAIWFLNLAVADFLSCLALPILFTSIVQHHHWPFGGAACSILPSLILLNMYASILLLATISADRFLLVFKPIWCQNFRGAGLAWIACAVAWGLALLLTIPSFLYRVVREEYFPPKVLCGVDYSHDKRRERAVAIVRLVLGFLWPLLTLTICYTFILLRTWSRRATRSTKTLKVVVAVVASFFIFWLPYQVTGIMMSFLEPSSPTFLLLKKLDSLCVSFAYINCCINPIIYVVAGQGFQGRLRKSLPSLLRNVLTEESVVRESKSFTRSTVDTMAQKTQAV
Experiment: FUS1p-lacZ β-galactosidase reporter assay in yeast expressing a heterologous C5a receptor
Format: cell-based
Conditions: yeast strains carrying C5a receptor plasmid and FUS1p-lacZ reporter; 4 hours incubation with varying concentrations of ChaCha
From the text: Yeast strains expressing heterologous GPCRs can be constructed as previously described (see e.g. WO 94/23025). In this example, to create a yeast strain expressing a heterologous GPCR and a Ste5 expression plasmid, yeast strain CY10103 (genotype MATa ste18 g6-3841 far1D1442 cyh2 tbt1-1 FUS1p-HIS3 can1 ste14::trp1::LYS2 ste3D1156 gpa1(41)-Gαi2 lys2 ura3 leu2 trp1 his3 ade2D3447 ade8D3457) was transformed by electroporation with a C5a receptor-bearing plasmid (Cp1303; genotype LEU2 PGKp-C5aR 2m-ori REP3 bla), a reporter plasmid (Cp1584; genotype bla TRP1 2m-ori FUS1p-lacZ), and plasmids that express either wild-type STE5p (Cp5373; genotype URA3 CEN6 ARSH4 bla FUS1p-STE5), a hyperactive STE5p mutant (Cp5643; genotype URA3 CEN6 ARSH4 bla FUS1p-STE5(S18R,T52M)), or no STE5p (Cp1015; genotype URA3 CEN6 ARSH4 bla). Triple transformants were selected on SC plates lacking uracil, tryptophan, and leucine. […]

responsiveness to ligand, monitored as β-galactosidase activity (agonist activity at the C5a receptor): potent agonist
Substance: N-methyl-Phe-Lys-Pro-dCha-Cha-dArg ([NMeF]KP[dCha][Cha][dR]) [ChaCha, C5a receptor ligand; Cha is cyclohexylalanine]
